# Test results taken from patent US5728561.
# Key:
# [1] = target: E1-beta of plasmid pCD705, with the C-terminal part of the E1-beta open reading frame in the wrong orientation (Streptomyces avermitilis)
# [2] = target: E1-beta subunit of S. avermitilis BCKDH (Streptomyces avermitilis)
substance,measurement,setting,value
E1-alpha subunit of S. avermitilis BCKDH (enzyme),E1 BCKDH specific activity,[1],0.5 pmol/min/mg
same,E1 BCKDH specific activity,[2],13.7 pmol/min/mg
